Data as given in patent publication US20110076723A1, “ANTIBODY-PEPTIDE FUSED SYNERGIBODY” (SAMSUNG ELECTRONICS CO., LTD., priority 2008, published 2011).
Each block holds one binder with its values, some of them ahead of it.

Key:
[1] = target: T1, recombinant VEGFR-2 protein (water soluble extracellular site of human VEGFR-2 with Fc of human IgG1 … (human, UniProt P35968 20-764)); experiment: competitive ELISA; synergibody titrated with 1 nM VEGFR-2 on coated VEGF 165
T1 construct: extracellular domain; Bought; not shown: Fc of human IgG1
T1 sequence (P35968 20-764): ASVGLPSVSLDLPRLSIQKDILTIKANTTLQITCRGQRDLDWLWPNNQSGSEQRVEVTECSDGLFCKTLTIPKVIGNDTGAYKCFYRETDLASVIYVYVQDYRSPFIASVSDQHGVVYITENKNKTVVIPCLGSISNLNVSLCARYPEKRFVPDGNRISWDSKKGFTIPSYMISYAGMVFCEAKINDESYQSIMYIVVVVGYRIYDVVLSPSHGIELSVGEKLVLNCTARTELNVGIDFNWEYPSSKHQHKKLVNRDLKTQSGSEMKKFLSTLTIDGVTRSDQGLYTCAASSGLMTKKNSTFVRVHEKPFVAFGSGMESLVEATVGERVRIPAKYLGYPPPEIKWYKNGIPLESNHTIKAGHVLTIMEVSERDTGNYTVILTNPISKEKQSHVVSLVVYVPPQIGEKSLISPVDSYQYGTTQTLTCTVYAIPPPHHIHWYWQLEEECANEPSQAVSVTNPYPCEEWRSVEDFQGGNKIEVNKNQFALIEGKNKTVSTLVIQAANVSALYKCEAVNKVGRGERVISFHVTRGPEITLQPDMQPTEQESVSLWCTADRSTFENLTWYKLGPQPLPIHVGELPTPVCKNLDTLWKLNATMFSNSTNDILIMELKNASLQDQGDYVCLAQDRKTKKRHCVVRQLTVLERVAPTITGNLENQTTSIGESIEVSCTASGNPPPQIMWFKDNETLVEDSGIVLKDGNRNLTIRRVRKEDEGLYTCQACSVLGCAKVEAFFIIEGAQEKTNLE
Method: Competitive ELISA is performed using the peptides synthesized above in Section 6A in order to assess the molecular interaction of the binders. […] Then the plate is washed five times with PBS containing 0.1% Tween-20, and blocked at room temperature for two hours with PBS containing 5% BSA. For VEGF:VEGFR-2 neutralization ELISA, each of the peptides synthesized in Section 6A above are diluted to one-fourth each time from 100 nM with PBS containing 1 nM VEGFR-2 and 1% BSA, and adjusted to 6.1 pM. 100 μl of peptide/VEGFR-2 solution is added to each well and the plate is left to react at room temperature for two hours. Subsequently, it is washed five times with PBS containing 0.1% Tween-20, mouse anti-VEGFR-2 antibodies (R&D Systems) is diluted to about 1:3,000 with PBS containing 1% BSA, and left to react at room temperature for one hour. Then 100 μl of goat anti-mouse-IgG-HRP (Pierce) diluted to about 1:10,000 with PBS containing 1% BSA is added to each well of the plate, left to react at room temperature for one hour, and washed five times with PBS containing 0.1% Tween-20. Lastly, 100 μl of TMB substrate (SIGMA) is added to each well of the plate to induce color reaction. The reaction is stopped by adding 50 μl of 5N H₂SO₄ solution, and the OD₄₅₀ value is read on a plate reader (Molecular Devices). Through the foregoing, the IC₅₀ value for the VEGF:VEGFR-2 binding capacity is obtained.
The method in Example 2, Section 6B above is used, except that, in the present example, each fused protein synergibodies are diluted from 100 nM to one-fourth each time with PBS containing 1% BSA and 1nM VEGFR-2 and adjusted to 6.1 pM for VEGF:VEGF-2 neutralization ELISA.

[2] = target: T2, recombinant hAng-2 (recombinant protein with His tag attached to human Ang-2; R&D Systems) (human, UniProt O15123 19-496); experiment: competitive ELISA; synergibody titrated with 1 nM hAng-2 (His) on coated hTie2-Fc
T2 construct: also called angiopoietin-2; ANGPT2
T2 sequence (looked up): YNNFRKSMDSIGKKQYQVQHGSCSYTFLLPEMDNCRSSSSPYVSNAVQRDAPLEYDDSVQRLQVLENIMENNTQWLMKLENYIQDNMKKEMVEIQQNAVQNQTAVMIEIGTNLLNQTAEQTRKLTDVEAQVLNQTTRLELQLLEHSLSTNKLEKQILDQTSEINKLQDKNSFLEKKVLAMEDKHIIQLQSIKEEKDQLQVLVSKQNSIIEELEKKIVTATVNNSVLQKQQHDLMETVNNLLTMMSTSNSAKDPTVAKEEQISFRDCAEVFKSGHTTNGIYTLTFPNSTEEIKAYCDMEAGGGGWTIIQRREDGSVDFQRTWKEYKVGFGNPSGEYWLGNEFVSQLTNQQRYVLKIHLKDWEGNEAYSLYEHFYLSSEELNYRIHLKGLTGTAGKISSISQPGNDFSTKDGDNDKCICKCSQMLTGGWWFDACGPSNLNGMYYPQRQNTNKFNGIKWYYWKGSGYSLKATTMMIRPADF
Method: A competitive ELISA is performed to assess the molecular interaction of the binders. A 96-well MaxiSorp™ flat-bottom plate (Nunc) is coated with hTie2-Fc (R&D Systems), which is a fused protein including the water-soluble extracellular portion of human Tie-2 and Fc of human IgG₁ dissolved in DMEM culture solution containing 50 μg/ml bovine serum albumin (BSA). The concentration of hTie2-Fc used as a coating material is equivalent to 75% of its maximum binding concentration with 1 nM of recombinant hAng-2 (recombinant protein with His tag attached to human Ang-2; R&D Systems). Then the plate is washed five times with Phosphate Buffer Saline (PBS) containing 0.1% Tween-20 and blocked at room temperature for two hours with PBS containing 5% BSA. Each anti-Ang-2 antibodies are diluted from 100 nM by one-fourth each time with PBS containing 1% BSA and 1 nM hAng-2 and adjusted to 6.1 pM for Ang-2:Tie-2 neutralization ELISA. 100 μl of antibody/hAng-2 solutions are placed in each corresponding well and left to react at room temperature for two hours. Then the wells are washed five times with PBS containing 0.1% Tween-20, and the anti-His antibodies (GE Healthcare) are diluted to about 1:3,000 with PBS containing 1% BSA and left to react at room temperature for one hour. Afterwards, 100 μl of goat anti-mouse-IgG-HRP (Pierce) diluted with PBS containing 1% BSA to about 1:10,000 is added to each well of the plate, left to react at room temperature for one hour, and washed with PBS containing 0.1% Tween-20 five times. Lastly, 100 μl of TMB substrate (SIGMA) is added to each well of the plate to induce color reaction, and the reaction is stopped by adding 50 μl of 5N H₂SO₄ solution. The OD₄₅₀ value is read on a plate reader (Molecular Devices).
The method described in Example 1, Section 3 above is used, except that, in the present example, each fused protein synergibodies are diluted from 100 nM to one-fourth each time with PBS containing 1% BSA and 1 nM hAng-2 and adjusted to 6.1 pM for Ang-2:Tie-2 neutralization ELISA.

B2: Syn-Ang-VEGFR-11 (other)
heavy (part 1 of 2): DVQLVESGGGLVQPGGSRKLSCAASGFTFSSFGMHWVRQAPEKGLEWVAYISSDSSTIYYADTVKGRFTISRDNPKNTLFLQMTSLRSEDTAMYYCAREGGYDDYYAMDYWGQGTSVTVSS
heavy (part 2 of 2): TGSDDLCYTFPCMHY
light: DIQMTQSPASQSASLGESVTITCLASQTIGTWLAWYQQKPGKSPQLLIYAATSLADGVPSRFSGSGSGTKFSFKISSLQAEDFVSYYCQQLYSIPLTFGGGTKLEIK
notes: Chimeric (human IgG1) SAITAng-2-3 with the peptide at the C-terminus of the heavy chain; also called SAITAng-2-3 x DTN6VEGFR-2-1; not shown: human IgG1 heavy chain constant region with Fc region, from the vector; human light chain constant region, printed as 'constant region of human IgG1'
- IC50 [1]: 0.872 nM
- IC50 [2]: 0.858 nM

B4: Syn-Ang-VEGFR-13 (other)
heavy (part 1 of 2): DVQLVESGGGLVQPGGSRKLSCAASGFTFSSFGMHWVRQAPEKGLEWVAYISSDSSTIYYADTVKGRFTISRDNPKNTLFLQMTSLRSEDTAMYYCAREGGYDDYYAMDYWGQGTSVTVSS
heavy (part 2 of 2): EAGAYWCKAWGLSPCLVT
light: DIQMTQSPASQSASLGESVTITCLASQTIGTWLAWYQQKPGKSPQLLIYAATSLADGVPSRFSGSGSGTKFSFKISSLQAEDFVSYYCQQLYSIPLTFGGGTKLEIK
notes: Chimeric (human IgG1) SAITAng-2-3 with the peptide at the C-terminus of the heavy chain; also called SAITAng-2-3 x DTN9VEGFR-2-3; not shown: human IgG1 heavy chain constant region with Fc region, from the vector; human light chain constant region, printed as 'constant region of human IgG1'
- IC50 [1]: 0.914 nM
- IC50 [2]: 0.903 nM

B6: Syn-Ang-VEGFR-12 (other)
heavy (part 1 of 2): DVQLVESGGGLVQPGGSRKLSCAASGFTFSSFGMHWVRQAPEKGLEWVAYISSDSSTIYYADTVKGRFTISRDNPKNTLFLQMTSLRSEDTAMYYCAREGGYDDYYAMDYWGQGTSVTVSS
heavy (part 2 of 2): EAGKETCGYEWQYCPRP
light: DIQMTQSPASQSASLGESVTITCLASQTIGTWLAWYQQKPGKSPQLLIYAATSLADGVPSRFSGSGSGTKFSFKISSLQAEDFVSYYCQQLYSIPLTFGGGTKLEIK
notes: Chimeric (human IgG1) SAITAng-2-3 with the peptide at the C-terminus of the heavy chain; also called SAITAng-2-3 x DTN8VEGFR-2-2; not shown: human IgG1 heavy chain constant region with Fc region, from the vector; human light chain constant region, printed as 'constant region of human IgG1'
- IC50 [1]: 0.854 nM
- IC50 [2]: 0.833 nM

Continued by falling IC50 [1], values first:

- IC50 [1]: 2.16 nM
- IC50 [2]: 2 nM
B1: Syn-Ang-VEGFR-10 (other)
heavy (part 1 of 2): QVQLQQSGPELVKPGASVKMSCKASGYTFTDYVISWVKQRTGQGLEWIGEIYPGSGSTYYNEKFKGKASLTADKSSNTAYMQLSSLTSADSAVYFCVRSRGDYYAMDYWGQGTSVTVSS
heavy (part 2 of 2): PGSQGYCHLNMRYQWICDSE
light: DIQMTQSPSSLSASLGGKVTITCKASQDINNYITWYQHKPGKGPRLLIHYTSTLQPGIPSRFSGSGSGRDYSFSISNLEPEDIATYYCLQYDNLLTFGGGTKLEIK
notes: Chimeric (human IgG1) SAITAng-2-2 with the peptide at the C-terminus of the heavy chain; also called SAITAng-2-2 x DTN11VEGFR-2-5; not shown: human IgG1 heavy chain constant region with Fc region, from the vector; human light chain constant region, printed as 'constant region of human IgG1'

- IC50 [1]: 1.05 nM
- IC50 [2]: 0.925 nM
B3: Syn-Ang-VEGFR-15 (other)
heavy (part 1 of 2): DVQLVESGGGLVQPGGSRKLSCAASGFTFSSFGMHWVRQAPEKGLEWVAYISSDSSTIYYADTVKGRFTISRDNPKNTLFLQMTSLRSEDTAMYYCAREGGYDDYYAMDYWGQGTSVTVSS
heavy (part 2 of 2): PGSQGYCHLNMRYQWICDSE
light: DIQMTQSPASQSASLGESVTITCLASQTIGTWLAWYQQKPGKSPQLLIYAATSLADGVPSRFSGSGSGTKFSFKISSLQAEDFVSYYCQQLYSIPLTFGGGTKLEIK
notes: Chimeric (human IgG1) SAITAng-2-3 with the peptide at the C-terminus of the heavy chain; also called SAITAng-2-3 x DTN11VEGFR-2-5; not shown: human IgG1 heavy chain constant region with Fc region, from the vector; human light chain constant region, printed as 'constant region of human IgG1'

- IC50 [1]: 0.889 nM
- IC50 [2]: 0.887 nM
B5: Syn-Ang-VEGFR-14 (other)
heavy (part 1 of 2): DVQLVESGGGLVQPGGSRKLSCAASGFTFSSFGMHWVRQAPEKGLEWVAYISSDSSTIYYADTVKGRFTISRDNPKNTLFLQMTSLRSEDTAMYYCAREGGYDDYYAMDYWGQGTSVTVSS
heavy (part 2 of 2): TGSGRMCDGSGPPTNCWFT
light: DIQMTQSPASQSASLGESVTITCLASQTIGTWLAWYQQKPGKSPQLLIYAATSLADGVPSRFSGSGSGTKFSFKISSLQAEDFVSYYCQQLYSIPLTFGGGTKLEIK
notes: Chimeric (human IgG1) SAITAng-2-3 with the peptide at the C-terminus of the heavy chain; also called SAITAng-2-3 x DTN10VEGFR-2-4; not shown: human IgG1 heavy chain constant region with Fc region, from the vector; human light chain constant region, printed as 'constant region of human IgG1'
